The values that follow come from US20050143285A1.

Assay [1] concerns the target T1, Aplysia californica acetylcholine binding protein (AChBP) (Aplysia californica).
T1 chain: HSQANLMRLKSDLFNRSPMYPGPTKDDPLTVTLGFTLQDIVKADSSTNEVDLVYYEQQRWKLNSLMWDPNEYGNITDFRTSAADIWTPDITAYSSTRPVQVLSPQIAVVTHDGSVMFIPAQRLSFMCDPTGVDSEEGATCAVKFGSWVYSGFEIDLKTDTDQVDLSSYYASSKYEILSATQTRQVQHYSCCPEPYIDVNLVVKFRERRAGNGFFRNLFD

The target of assay [2] is T2, Lymnaea stagnalis acetylcholine binding protein (AChBP) (Lymnaea stagnalis), P58154.
T2 sequence (P58154 20-229): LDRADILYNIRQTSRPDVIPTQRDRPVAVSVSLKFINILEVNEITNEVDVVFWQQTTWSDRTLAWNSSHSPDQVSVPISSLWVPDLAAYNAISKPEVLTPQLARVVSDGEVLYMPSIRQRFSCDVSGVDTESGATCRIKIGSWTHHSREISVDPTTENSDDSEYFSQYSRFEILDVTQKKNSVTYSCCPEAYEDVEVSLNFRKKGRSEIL
In assay [3] the target is T1, Aplysia californica acetylcholine …. Description: stopped-flow spectrofluorimetry, excitation 280 nm, emission above 305 nm.
The target of assay [4] is T2, Lymnaea stagnalis acetylcholine binding …. The assay is described as above.
Assay [5] concerns the target T1, Aplysia californica acetylcholine ….
Assay [6] has the same target.
Assay [7] addresses T2, Lymnaea stagnalis acetylcholine binding …. Description: stopped-flow spectrofluorimetry.
Assay [8] has the same target. Description: ratio of Kd on Lymnaea AChBP to Kd on Aplysia AChBP.

With GCCSDPRCAWRC (modifications not checked) [α-conotoxin ImI, P50983 5-16], the equilibrium dissociation constant (Kd) in assay [1] stood at 0.00088 µM; in assay [2], 14 µM. Besides, the kon in assay [3] worked out at 1.6e+07 M⁻¹ s⁻¹; in assay [4], 1.4e+06 M⁻¹ s⁻¹. The same molecule returned a fold greater affinity than for L-AChBP in assay [5] of over 10000 fold. The dissociation rate constant (koff) was 0.01 s⁻¹ in assay [6] and 19 s⁻¹ in assay [7]. The Kd Ratio L/A in assay [8] was determined as 16000.
